According to PMC13152641:

Key:
[1] = target: CICmin31 R201W (IVT) (human, UniProt Q96RK0-2 188-294+1457-1527, R201W;internal_change); experiment: EMSA
[2] = target: CICmin18 R1512H (human, UniProt Q96RK0-2 188-280+=F+1457-1527, R1512H;internal_change); experiment: MST
[3] = target: CICmin31 WT (human, UniProt Q96RK0-2 188-294+1457-1527, internal_change); experiment: MST
[4] = target: CICmin31 M1519D (human, UniProt Q96RK0-2 188-294+1457-1527, M1519D;internal_change); experiment: MST
[5] = target: CICmin31 R215W (human, UniProt Q96RK0-2 188-294+1457-1527, R215W;internal_change); experiment: MST
[6] = target: CICmin31 R1515H (human, UniProt Q96RK0-2 188-294+1457-1527, R1515H;internal_change); experiment: MST
[7] = target: CICmin31 R201W (human, UniProt Q96RK0-2;Q96RK0-2, R201W); experiment: MST
[8] = target: T1, CICmin18 WT (human, UniProt Q96RK0-2;Q96RK0-2); experiment: MST
[9] = target: CICmin18 R1515H (human, UniProt Q96RK0-2 188-280+=F+1457-1527, R1515H;internal_change); experiment: MST
[10] = target: CICmin18 M1519D (human, UniProt Q96RK0-2 188-280+=F+1457-1527, M1519D;internal_change); experiment: MST
[11] = target: T1, CICmin18 WT; experiment: X-ray crystallography 2.95 A
[12] = target: T1, CICmin18 WT; experiment: EMSA
[13] = target: CICmin31 WT (IVT) (human, UniProt Q96RK0-2 188-294+1457-1527, internal_change); experiment: EMSA

B1: ETV5 30-mer (EMSA) (dsDNA)
DNA 1: GGCGTTTTTTATGAATGAAAAACGTCCTCC
DNA 2: GGAGGACGTTTTTCATTCATAAAAAACGCC
binding result [1]: binds

B2: ETV5 30-mer (MST) (dsDNA)
DNA 1: GGCGTTTTTTATGAATGAAAAACGTCCTCC
DNA 2: GGAGGACGTTTTTCATTCATAAAAAACGCC
apparent K (half saturation) [2]: 14.6 nM
apparent K (half saturation) [3]: 226 nM
apparent K (half saturation) [4]: 32.2 nM
apparent K (half saturation) [5]: 151 nM
apparent K (half saturation) [6]: 1430 nM
apparent K (half saturation) [7]: 171 nM
apparent K (half saturation) [8]: 15.5 nM
apparent K (half saturation) [9]: 16.7 nM
apparent K (half saturation) [10]: 50.3 nM

B3: ETV5 18-mer (crystal) (dsDNA)
DNA 1: GGTTATGAATGAAAAACC
DNA 2: GGTTTTTCATTCATAACC
binding result [11]: binds

B4: random-site 30-mer (EMSA) (dsDNA)
DNA 1: GGCGTTTTTTAGTCGCTGCAAACGTCCTCC
DNA 2: GGAGGACGTTTGCAGCGACTAAAAAACGCC
binding result [12]: no binding
binding result [13]: no binding
